US20230124851A1 (INHIBRX LNC, published 2023)

T1: human B7H3 (CD276) on the cell surface (human, UniProt Q5ZPR3 29-534)
T1 construct: B7H3 on A375 and other B7H3-positive or transfected cells
T1 sequence: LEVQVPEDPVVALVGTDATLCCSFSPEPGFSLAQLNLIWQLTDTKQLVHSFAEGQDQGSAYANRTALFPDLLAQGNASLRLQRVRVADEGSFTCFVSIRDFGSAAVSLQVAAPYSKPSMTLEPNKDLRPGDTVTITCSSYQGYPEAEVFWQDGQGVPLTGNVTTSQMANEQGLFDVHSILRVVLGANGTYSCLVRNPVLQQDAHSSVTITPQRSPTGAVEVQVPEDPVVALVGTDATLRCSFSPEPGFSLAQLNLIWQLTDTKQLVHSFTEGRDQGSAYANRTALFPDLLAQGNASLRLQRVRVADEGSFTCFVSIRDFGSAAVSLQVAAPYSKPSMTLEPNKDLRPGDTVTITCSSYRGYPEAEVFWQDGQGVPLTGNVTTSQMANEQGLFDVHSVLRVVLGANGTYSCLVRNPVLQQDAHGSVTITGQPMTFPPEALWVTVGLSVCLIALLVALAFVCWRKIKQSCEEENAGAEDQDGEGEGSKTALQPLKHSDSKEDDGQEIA


Tests used:
[1] = biological target: T1, human B7H3 (CD276) on the cell surface; assay: flow cytometry on A375 cells (B7H3+), anti-human Fc secondary
Protocol: (§1) Binding of exemplary multispecific constructs containing an antigen-binding domain directed against B7H3 were assessed for binding to B7H3 positive A375 tumor cells or primary T-cells. The constructs were generated containing antigen-binding domain(s) that were either sdAbs or a FABs, and that were positioned either only N-terminal to the Fc or both N-terminal to the Fc and C-terminal to the anti-CD3 binding domain (see FIGS. 30A and 30C and Table E5). Among the various formats of constructs tested included: sdAb-Fc-dsFV-sdAb (cx3072, cx5952) sdAb-Fc-FV (cx6079), sdAb-Fc-dsFV (cs6080, cx6081), MAB-FV (cx5067) and MAB-dsFV (cx6083, cx6084), where the FV represents the anti-CD3 binding domain composed of VH and VL domain pairs and “ds” notes disulfide stabilized via an engineered interdomain disulfide bond.
(§2) Binding was assessed as described above via flow cytometry using a fluorophore-conjugated anti-human Fc secondary antibody. cx3072 bound to A375 cells with high affinity (FIG. 31A) but not to isolated T-cells (FIG. 31B). […] The B7H3 -targeting sdAb containing constructs (cx5952, cx6079, cx6080, and cx6081) bound to B7H3 positive cells with similar affinities (depicted in FIG. 31E), with cx5952 displaying higher maximal binding. cx6079, cx6080 and cx6081 contain two identical B7H3-targeting sdAbs, whereas cx5952, and cx3072 contain two distinct B7H3-targeting sdAb that bind different epitopes. The MAB-FV, cx5067, contains two identical B7H3-targeting FAB domains.

[2] = biological target: T2, CD3 on the surface of human T cells (human, UniProt P07766 23-207); assay: flow cytometry on primary human T cells, anti-human Fc secondary
T2 construct: whole, on cells; Part of the CD3/TCR complex on cells; also called CD3 epsilon
T2 sequence (P07766 23-207): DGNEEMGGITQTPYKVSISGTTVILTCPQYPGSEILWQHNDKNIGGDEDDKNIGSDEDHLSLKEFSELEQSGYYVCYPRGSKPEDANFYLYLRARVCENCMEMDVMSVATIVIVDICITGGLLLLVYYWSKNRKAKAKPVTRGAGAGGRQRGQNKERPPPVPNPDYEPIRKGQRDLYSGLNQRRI
Protocol: as §1, §2

| binding result [1] | binding result [2] | Binder |
| --- | --- | --- |
| binds | no binding | cx5067 (bispecific antibody, anti-CD3 Fv not disulfide-stabilized; also called MAB-FV) chain 1: EVQLVESGGGLVQPGGSLRLSCAASGFTFSSFGMHWVRQAPGKGLEWVAYISSDSSAIYYADTVKGRFTISRDNAKNSLYLQMNSLRDEDTAVYYCGRGRENIYYGSRLDYWGQGTTVTVSSASTKGPSVFPLAPSSKSTSGGTAALGCLVKDYFPEPVTVSWNSGALTSGVHTFPAVLQSSGLYSLSSVVTVPSSSLGTQTYICNVNHKPSNTKVDKKVEPKSCDKTHTCPPCPAPPVAGPSVFLFPPKPKDTLMISRTPEVTCVVVDVKHEDPEVKFNWYVDGVEVHNAKTKPREEEYNSTYRVVSVLTVLHQDWLNGKEYKCKVSNKALPAPIEKTISKAKGQPREPQVYTLPPSREEMTKNQVSLTCDVSGFYPSDIAVEWESDGQPENNYKTTPPVLDSDGSFFLYSKLTVDKSRWEQGDVFSCSVMHEALHNHYTQKSLSLSPGKGGGGSGGGGSGGGGSEVQLVESGGGLVQPGGSLRLSCAASGFTFSTYAMNWVRQAPGKGLEWVGRIRSKYNNYATYYADSVKGRFTISRDDSKNTLYLQMNSLRAEDTAVYYCVRHGNFGDSYVSWFAYWGQGTLVTVSS chain 2: EVQLVESGGGLVQPGGSLRLSCAASGFTFSSFGMHWVRQAPGKGLEWVAYISSDSSAIYYADTVKGRFTISRDNAKNSLYLQMNSLRDEDTAVYYCGRGRENIYYGSRLDYWGQGTTVTVSSASTKGPSVFPLAPSSKSTSGGTAALGCLVKDYFPEPVTVSWNSGALTSGVHTFPAVLQSSGLYSLSSVVTVPSSSLGTQTYICNVNHKPSNTKVDKKVEPKSCDKTHTCPPCPAPPVAGPSVFLFPPKPKDTLMISRTPEVTCVVVDVKHEDPEVKFNWYVDGVEVHNAKTKPREEQYNSTYRVVSVLTVLHQDWLNGKEYKCKVSNKALPAPIEKTISKAKGQPREPQVYTLPPSREQMTKNQVKLTCLVKGFYPSDIAVEWESNGQPENNYKTTPPVLDSDGSFFLYSKLTVDKSRWQQGNVFSCSVMHEALHNHYTQKSLSLSPGKGGGGSGGGGSGGGGSQAVVTQEPSLTVSPGGTVTLTCGSSTGAVTTSNYANWVQQKPGKSPRGLIGGTNKRAPGVPARFSGSLLGGKAALTISGAQPEDEADYYCALWYSNHWVFGGGTKLTVL light: DIQLTQSPSFLSASVGDRVTITCKASQNVDTNVAWYQQKPGKAPKALIYSASYRYSGVPSRFSGSGSGTDFTLTISSLQPEDFATYYCQQYNNYPFTFGQGTKLEIKRTVAAPSVFIFPPSDEQLKSGTASVVCLLNNFYPREAKVQWKVDNALQSGNSQESVTEQDSKDSTYSLSSTLTLSKADYEKHKVYACEVTHQGLSSPVTKSFNRGEC |
| binds | no binding | cx6084 (bispecific antibody, human IgG1, kappa, disulfide-stabilized anti-CD3 Fv; also called MAB-dsFV) chain 1: EVQLVESGGGLVQPGGSLRLSCAASGFTFSSFGMHWVRQAPGKGLEWVAYISSDSSAIYYADTVKGRFTISRDNAKNSLYLQMNSLRDEDTAVYYCGRGRENIYYGSRLDYWGQGTTVTVSSASTKGPSVFPLAPSSKSTSGGTAALGCLVKDYFPEPVTVSWNSGALTSGVHTFPAVLQSSGLYSLSSVVTVPSSSLGTQTYICNVNHKPSNTKVDKKVEPKSCDKTHTCPPCPAPPVAGPSVFLFPPKPKDTLMISRTPEVTCVVVDVKHEDPEVKFNWYVDGVEVHNAKTKPREEEYNSTYRVVSVLTVLHQDWLNGKEYKCKVSNKALPAPIEKTISKAKGQPREPQVYTLPPSREEMTKNQVSLTCDVSGFYPSDIAVEWESDGQPENNYKTTPPVLDSDGSFFLYSKLTVDKSRWEQGDVFSCSVMHEALHNHYTQKSLSLSPGKGGGGSGGGGSGGGGSEVQLVESGGGLVQPGGSLRLSCAASGFTFNTYAMNWVRQAPGKCLEWVARIRSKYNNYATYYADSVKGRFTISRDDAKNTLYLQMSSLRAEDTAVYYCVRHGNFGNSYVSWFAYWGQGTLVTVKP chain 2: EVQLVESGGGLVQPGGSLRLSCAASGFTFSSFGMHWVRQAPGKGLEWVAYISSDSSAIYYADTVKGRFTISRDNAKNSLYLQMNSLRDEDTAVYYCGRGRENIYYGSRLDYWGQGTTVTVSSASTKGPSVFPLAPSSKSTSGGTAALGCLVKDYFPEPVTVSWNSGALTSGVHTFPAVLQSSGLYSLSSVVTVPSSSLGTQTYICNVNHKPSNTKVDKKVEPKSCDKTHTCPPCPAPPVAGPSVFLFPPKPKDTLMISRTPEVTCVVVDVKHEDPEVKFNWYVDGVEVHNAKTKPREEQYNSTYRVVSVLTVLHQDWLNGKEYKCKVSNKALPAPIEKTISKAKGQPREPQVYTLPPSREQMTKNQVKLTCLVKGFYPSDIAVEWESNGQPENNYKTTPPVLDSDGSFFLYSKLTVDKSRWQQGNVFSCSVMHEALHNHYTQKSLSLSPGKGGGGSGGGGSGGGGSQAVVTQEPSLTVSPGGTVTLTCGSSTGAVTTSNYANWVQQKPGQAFRGLIGGTNKRAPGVPARFSGSLLGGKAALTISGAQPEDEADYYCALWYSNHWVFGCGTKLEIK light: DIQLTQSPSFLSASVGDRVTITCKASQNVDTNVAWYQQKPGKAPKALIYSASYRYSGVPSRFSGSGSGTDFTLTISSLQPEDFATYYCQQYNNYPFTFGQGTKLEIKRTVAAPSVFIFPPSDEQLKSGTASVVCLLNNFYPREAKVQWKVDNALQSGNSQESVTEQDSKDSTYSLSSTLTLSKADYEKHKVYACEVTHQGLSSPVTKSFNRGEC |
| binds | no binding | cx6083 (bispecific antibody, disulfide-stabilized anti-CD3 Fv; also called MAB-dsFV) chain 1: EVQLVESGGGLVQPGGSLRLSCAASGFTFSSFGMHWVRQAPGKGLEWVAYISSDSSAIYYADTVKGRFTISRDNAKNSLYLQMNSLRDEDTAVYYCGRGRENIYYGSRLDYWGQGTTVTVSSASTKGPSVFPLAPSSKSTSGGTAALGCLVKDYFPEPVTVSWNSGALTSGVHTFPAVLQSSGLYSLSSVVTVPSSSLGTQTYICNVNHKPSNTKVDKKVEPKSCDKTHTCPPCPAPPVAGPSVFLFPPKPKDTLMISRTPEVTCVVVDVKHEDPEVKFNWYVDGVEVHNAKTKPREEEYNSTYRVVSVLTVLHQDWLNGKEYKCKVSNKALPAPIEKTISKAKGQPREPQVYTLPPSREEMTKNQVSLTCDVSGFYPSDIAVEWESDGQPENNYKTTPPVLDSDGSFFLYSKLTVDKSRWEQGDVFSCSVMHEALHNHYTQKSLSLSPGKGGGGSGGGGSGGGGSEVQLVESGGGLVQPGGSLRLSCAASGFTFSTYAMNWVRQAPGKCLEWVGRIRSKYNNYATYYADSVKGRFTISRDDSKNTLYLQMNSLRAEDTAVYYCVRHGNFGDSYVSWFAYWGQGTLVTVSS chain 2: EVQLVESGGGLVQPGGSLRLSCAASGFTFSSFGMHWVRQAPGKGLEWVAYISSDSSAIYYADTVKGRFTISRDNAKNSLYLQMNSLRDEDTAVYYCGRGRENIYYGSRLDYWGQGTTVTVSSASTKGPSVFPLAPSSKSTSGGTAALGCLVKDYFPEPVTVSWNSGALTSGVHTFPAVLQSSGLYSLSSVVTVPSSSLGTQTYICNVNHKPSNTKVDKKVEPKSCDKTHTCPPCPAPPVAGPSVFLFPPKPKDTLMISRTPEVTCVVVDVKHEDPEVKFNWYVDGVEVHNAKTKPREEQYNSTYRVVSVLTVLHQDWLNGKEYKCKVSNKALPAPIEKTISKAKGQPREPQVYTLPPSREQMTKNQVKLTCLVKGFYPSDIAVEWESNGQPENNYKTTPPVLDSDGSFFLYSKLTVDKSRWQQGNVFSCSVMHEALHNHYTQKSLSLSPGKGGGGSGGGGSGGGGSQAVVTQEPSLTVSPGGTVTLTCGSSTGAVTTSNYANWVQQKPGKSPRGLIGGTNKRAPGVPARFSGSLLGGKAALTISGAQPEDEADYYCALWYSNHWVFGCGTKLTVL light: DIQLTQSPSFLSASVGDRVTITCKASQNVDTNVAWYQQKPGKAPKALIYSASYRYSGVPSRFSGSGSGTDFTLTISSLQPEDFATYYCQQYNNYPFTFGQGTKLEIKRTVAAPSVFIFPPSDEQLKSGTASVVCLLNNFYPREAKVQWKVDNALQSGNSQESVTEQDSKDSTYSLSSTLTLSKADYEKHKVYACEVTHQGLSSPVTKSFNRGEC |
